From the DeepSol protein solubility set

Assay: soluble on expression in E. coli; label from the status in PepcDB or PDB records

Sequence | soluble on expression in E. coli
MRAILILLDGLGDRASEILNNKTPLQFAKTPNLDRLAENGMCGLMTTYKEGIPLGTEVAHFLLWGYSLEEFPGRGVIEALGEDIEIEKNAIYLRASLGFVKKDEKGFLVIDRRTKDISREEIEKLVDSLPTCVDGYKFELFYSFDVHFILKIKERNGWISDKISDSDPFYKNRYVMKVKAIRELCKSEVEYSKAKDTARALNKYLLNVYKILQNHKINRKRRKLEKMPANFLLTKWASRYKRVESFKEKWGMNAVILAESSLFKGLAKFLGMDFIKIESFEEGIDLIPELDYDFIHLHTKETDEAAHTKNPLNKVKVIEKIDKLIGNLKLREDDLLIITADHSTPSVGNLIHSGESVPILFYGKNVRVDNVKEFNEISCSNGHLRIRGEELMHLILNYTDRALLYGLRSGDRLRYYIPKDDEIDLLEG | not soluble
MGSDKIHHHHHHMQPDLLVFGGDLISGPIPLETLDLIYDLKSKYRTASVLGNNDQDIIDSYENKKLSLSNKAQEQIKWVTRLLNEKQILDLKDMPININVGKYFFCHAIADDNRTIFTQKTRISNIKQLFLEVISPFIICGHTHLQFKLKIGSQQIINAGSVGMPFSDKKGAQWLWIENNNFQFRRTLFDEDIAIKNMKNSDFPFVNQFIEEYVKNTVKVRTGYKILRRLEENNRLRK | not soluble
MSLILASLVRYYRRLATETDETGNPKVPSYGFSEEKIGWILVLDKEGRLKTVVPNLTADKKPQPKLMSVPRPEKRTSGIKPNFLWDKTAYALGVEANKNKAEAKEKPFTPSEKTFEAFKQYHLDLLQNSEDEGLQALCRFLQNWQPAHFAAENLPAEMLDSNTAFSLEKPTALIHKREAAQTLWAGCLKSDEALESLCLISGDTAPIARLHPAIKGVFGGQSSGGSIISFNKEAFSSFGKEQGANAPVSEQSAFAYTTALNYLLRRENNHCLTIGDASTVFWAEADDIVDEGHHHHHH | not soluble
MILFPQNEDTVMSEMVAFRQGTSMPSRETILHYVVETVNQITELEPALHLLPWSGVNSAIYEQRFAQCYDEGLCAAQTSAPNVPQGILPSTDWAQGIGLLCFAAGYMSAGERPLTHNQLCDFVKQAAVGLSPIEGEAASGFSTVRSIALPVFRRLQRDGHASRVLLLQTLLHLVAWKSASQYARQQAQRLLWMGGILGEGGEHSLLVLDKALREEAVGEKSLPALLIFTSFLAHFPAGPVFID | not soluble
MRIIETIEEMKKFSEEMREKKKTIGFVPTMGYLHEGHLSLVRRARAENDVVVVSIFVNPTQFGPNEDYERYPRDFERDRKLLEKENVDCIFHPSVEEMYPPDFSTYVEETKLSKHLCGRSRPGHFRGVCTVVTKLFNIVKPHRAYFGQKDAQQFRVLRRMVRDLNMDVEMIECPIVREPDGLAMSSRNVYLSPEERQQALSLYQSLKIAENLYLNGERDAEKIKEEMIKHLSRFDKVKIDYVEIVDEETLEPVEKIDRKVIVAVAAWVGNARLIDNTILG | soluble
MAHHHHHHMLRVIVRRLAWRPAAIQHLPDLGSKDAPKKTEDTQRQYRPLSLRARQALAEKSDEVQYHVITQDWFGQRVDTFLTQHHPEWSYETMKTLVQQGHIYRYRKNGKKRFTRITDRLEFDELLVVPTPVFYERQLAPPTGVLQESKKPTHFKLSSQVREMAHNMVLFKNEHVIVINKPHGVPMMPTSDPQEMNIAAMLSAWKYTNSTKPIVCHNLDKETSGCVVLARSKNAHRMLARMFVKRVVPNSVYWGFCVGKPSVNFGRIRMHFEMTRGTKGDIIVARPSPTKTSKVGIAEFVVNASALEFGSFISFYPLTTRRHQERIMAAHALRSPLLGDAKYGGESAFPSSMSLFWDPEDKGLPLHLHHRKIQLPYKNSTGEFVCVTAPLPIHMEKTFKKLGWPCDVDDPLIPG | not soluble
MRGSHHHHHHGSMAVPPTYADLGKSARDVFTKGYGFGLIKLDLKTKSENGLEFTSSGSANTETTKVNGSLETKYRWTEYGLTFTEKWNTDNTLGTEITVEDQLARGLKLTFDSSFSPNTGKKNAKIKTGYKREHINLGCDVDFDIAGPSIRGALVLGYEGWLAGYQMNFETSKSRVTQSNFAVGYKTDEFQLHTNVNDGTEFGGSIYQKVNKKLETAVNLAWTAGNSNTRFGIAAKYQVDPDACFSAKVNNSSLIGLGYTQTLKPGIKLTLSALLDGKNVNAGGHKLGLGLEFQA | soluble
MGSDKIHHHHHHMTRIVESLAEISDLYDAVFCDLWGCVHDGITAFDEAIEALRAFKAKGGTVLLLTNAPRPRASVATQLDDFGIPRDCWDVIATSGDSARAAMLSGAVGTKVWHIGEPEHAPFFAPMDLVADAVDVTRVPLDEAEGIVCTGPFDPKADPSELRPQFLLAKTRRLKLLCANPDIVVDRGESREWCAGALAKLYTEMGGESLYFGKPHPPIYDLARRRLVQMGKPTPDDRILAIGDGIVTDVPGGIGENIDTLFITGGLARDETGTDHQPDPAKLARFLTDAQLEPTYSVGMLR | not soluble
MGSDKIHHHHHHTCSACIQYHESCAWCGAPMFDEKKPYARCDSRAKLMEHGCPNSYIEDPATKLDITEDSKLSDQGQVESEEEAVQIKPQEMYVEIRPKSRVRFNVTYRQAVDYPVDLYYLMDLSYSMKDDKQKLSELGDLLAERMRTVTKNFRLGFGSFIDKKLMPFIDPRIEKQLSPCPTPCAEPYGFKHQMSLTTNTAKFKAEVDKAEISGNLDAPEGGFDAVVQALACNKTIGWRERARKMIVFSTDAGFHFAGDGRLAGVVEPNDGTCHLDREGYYTETLNQDYPSIALLHQMIKDRKANVIFAVTKNNQDLYTQLSNALPDVSSSVGVLANDSRNIVDLIEKEYLKISEKIIMVDNANASEGLKLTYRSMCLDGTTLKDTNVCEGIRVGDEVQFEVTLENTHCIDKRDFVLRIGPSGLDETLIVNVKVLCDC | not soluble
EVIAAYIEGIKKAAENGLNVSQIHSVASFFVSRLDTEVDKRLEQIGSDEALSLRGKAGVANAQRAYAVFLEAFQAADLPVGAHVQRPLWASTGVKNPDYSPTFYVSELAGPDTVNTMPESTIDAVLAADDIHGDTLSSSSDSANEIFTRISQTGIDFEDVFAVLEQEGVDKFVAAWSDLLDSMESRLK | not soluble
MLSINPNEQTEKDNYKLLTGSIIPRPVAFVTSVTKEGVLNGAPYSYFNIVAANPPLISVSVQRKAGERKDTSRNAIEKGEFVVHISDESYVAAINETAANLPPNESEIELAKLTPIESEVISVPGVKEANIRMECVLERAIPLGGTEDSPACDLLIGRVVRFHVAEHLYEKGRIHAEGLKPISRLAGHNYAKLGEQFELVRPI | soluble
MAEGVNEPCFPGDCGIFVTKVDKGSIADGRLRVNDWLLRINDVDLINKDKKQAIKALLNGEGAINMVVRRRKSLGGKVVTPLHINLSGQKDSGISLENGVYAAAVLPGSPAAKEGSLAVGDRIVAINGIALDNKSLNECESLLRSCQDSLTLSLLKVFPQSSSWSGQNIFENIKDSDKMLSFRAHGPEVQAHNKRNLIQHNNSTQTDIFYTDRLEDRKEPGPPGGSSSFLHKPFPGGPLQVCPQACPSASERSLSSFRSDASGDRGFGLVDVRGRRPLLPFETEVGPCGVGEASLDKADSEGSNSGGTWPKAMLSSTAVPEKLSVYKKPKQRKSIFDPNTFKRPQTPPKIDYLLPGPGPAHSPQPSKRAGPLTPPKPPRRSDSIKFQHRLETSSESEATLVGSSPSTSPPSALPPDVDPGEPMHASPPRKARVRIASSYYPEGDGDSSHLPAKKSCDEDLTSQKVDELGQKRRRPKSAPSFRPKLAPVVIPAQFLEEQKCVPASGELSPELQEWAPYSPGHSSRHSNPPLYPSRPSVGTVPRSLTPSTTVSSILRNPIYTVRSHRVGPCSSPPAARDAGPQGLHPSVQHQGRLSLDLSHRTCSDYSEMRATHGSNSLPSSARLGSSSNLQFKAERIKIPSTPRYPRSVVGSERGSVSHSECSTPPQSPLNIDTLSSCSQSQTSASTLPRIAVNPASLGERRKDRPYVEEPRHVKVQKGSEPLGISIVSGEKGGIYVSKVTVGSIAHQAGLEYGDQLLEFNGINLRSATEQQARLIIGQQCDTITILAQYNPHVHQLSSHSRSSSHLDPAGTHSTLQGSGTTTPEHPSVIDPLMEQDEGPSTPPAKQSSSRIAGDANKKTLEPRVVFIKKSQLELGVHLCGGNLHGVFVAEVEDDSPAKGPDGLVPGDLILEYGSLDVRNKTVEEVYVEMLKPRDGVRLKVQYRPEEFTKAKGLPGDSFYIRALYDRLADVEQELSFKKDDILYVDDTLPQGTFGSWMAWQLDENAQKIQRGQIPSKYVMDQEFSRRLSMSEVKDDNSATKTLSAAARRSFFRRKHKHKRSGSKDGKDLLALDAFSSDSIPLFEDSVSLAYQRVQKVDCTALRPVLILGPLLDVVKEMLVNEAPGKFCRCPLEVMKASQQAIERGVKDCLFVDYKRRSGHFDVTTVASIKEITEKNRHCLLDIAPHAIERLHHMHIYPIVIFIHYKSAKHIKEQRDPIYLRDKVTQRHSKEQFEAAQKLEQEYSRYFTGVIQGGALSSICTQILAMVNQEQNKVLWIPACPL | soluble
MTYTVGMYLAERLVQIGLKHHFAVAGDYNLVLLDQLLLNKDMKQIYCCNELNCGFSAEGYARSNGAAAAVVTFSVGAISAMNALGGAYAENLPVILISGAPNSNDQGTGHILHHTIGKTDYSYQLEMARQVTCAAESITDAHSAPAKIDHVIRTALRERKPAYLDIACNIASEPCVRPGPVSSLLSEPEIDHTSLKAAVDATVALLEKSASPVMLLGSKLRAANALAATETLADKLQCAVTIMAAAKGFFPEDHAGFRGLYWGEVSNPGVQELVETSDALLCIAPVFNDYSTVGWSAWPKGPNVILAEPDRVTVDGRAYDGFTLRAFLQALAEKAPARPASAQKSSVPTCSLTATSDEAGLTNDEIVRHINALLTSNTTLVAETGDSWFNAMRMTLPRGARVELEMQWGHIGWSVPSAFGNAMGSQDRQHVVMVGDGSFQLTAQEVAQMVRYELPVIIFLINNRGYVIEIAIHDGPYNYIKNWDYAGLMEVFNAGEGHGLGLKATTPKELTEAIARAKANTRGPTLIECQIDRTDCTDMLVQWGRKVASTNARKTTLALEHHHHHH | soluble
MGSDKIHHHHHHMKIKVKLPDGKEKEYDRGITPAEIAKELGIKKAIGAVVNGELWDLKRPIENDCELRLVTLEDPEAPEFYRHTMAHILAQAVMRLYGKENVKLGIGPTIENGFYYDFDIKNGRLTEEDLPKIEQEMKKIIKENLPIERKEISKEEARELFRDQPYKLELIEEIEGNRVTIYRQGEFVDLCRGPHLPSTGIVKHFKLLSVSGAYWRGSEKNPMLTRVYGTAFAKKEDLDNYLKFLEEAQRRDHRKLGPQLELFMLNTEYAPGMPFFLPKGVVVLNELMKFSRELHRERGYQEIFTPLIMNEQLWKISGHWDHYAENMYFIEKDEERYAVKPMNCPGHILVYKSRTVSYRDLPLRFFEFGRVHRYERSGVLHGLMRVRSFTQDDAHIFCTPDQIEEEILGVLDLINTIYSQFGFTYRVELSTMPEDHMGDEAIWEKATTALKNALERAGLSYKVNEGEGAFYGPKIDFHIRDSIGREWQCATIQLDFMMPEKFNVTYIGPDNKEHRAVMIHRAIYGSLERFFGILIEHFAGAFPTWLAPIQVAVIPISEKHNDGAEKVARRISQEGFRVFFDNRRETLGYRIRQAQTQKIPYMIIIGDKELESGKISVRTRTGKEIKDVDPEHFVETLRNEVLSRKLELSMEG | not soluble
GSSGSSGTRTYDREGFKKRAACLCFRSEQEDEVLLVSSSRYPDQWIVPGGGMEPEEEPGGAAVREVYEEAGVKGKLGRLLGIFENQDRKHRTYVYVLTVTEILEDWEDSVNIGRKREWFKVEDAIKVLQCHKPVHAEYLEKLKLG | soluble
GPGSMKLERSSCFEVQGCISCLTQASNEDACLASTMMNGAHIFHMGDLQHAQCGARQAVTHVETFPHGNFGEGAVISSSFVSYDSCFATGSSSGDIVLVSRHSKNVVQHYSFQNKAAVLSLKEVPNEPSLLLACSPTDAQIIDLETSTARINLHIPKPCVVGGTALTQNTLVVAAYDGKAMLYDVRRGHEPVVILAVPDQIISITSSPDTGAVATGTVSGRVFVLRCLEGNVREEAFSTGKERAPIRSVAMRNGYIAAGDTSAKLTCLDLKEDPKPTRYWDLHSLLTNESGPPSSGAEKLSSVTVPDTESWSLPAVMLQQSDLWAALSSTKYGVSHILAIPI | not soluble
